This note sets out measurements from patent US20220089784A1 (University of California, published 2022).

First the molecules themselves.
T1: BoNT/D (Clostridium botulinum, UniProt P19321 2-1276)
T1 sequence: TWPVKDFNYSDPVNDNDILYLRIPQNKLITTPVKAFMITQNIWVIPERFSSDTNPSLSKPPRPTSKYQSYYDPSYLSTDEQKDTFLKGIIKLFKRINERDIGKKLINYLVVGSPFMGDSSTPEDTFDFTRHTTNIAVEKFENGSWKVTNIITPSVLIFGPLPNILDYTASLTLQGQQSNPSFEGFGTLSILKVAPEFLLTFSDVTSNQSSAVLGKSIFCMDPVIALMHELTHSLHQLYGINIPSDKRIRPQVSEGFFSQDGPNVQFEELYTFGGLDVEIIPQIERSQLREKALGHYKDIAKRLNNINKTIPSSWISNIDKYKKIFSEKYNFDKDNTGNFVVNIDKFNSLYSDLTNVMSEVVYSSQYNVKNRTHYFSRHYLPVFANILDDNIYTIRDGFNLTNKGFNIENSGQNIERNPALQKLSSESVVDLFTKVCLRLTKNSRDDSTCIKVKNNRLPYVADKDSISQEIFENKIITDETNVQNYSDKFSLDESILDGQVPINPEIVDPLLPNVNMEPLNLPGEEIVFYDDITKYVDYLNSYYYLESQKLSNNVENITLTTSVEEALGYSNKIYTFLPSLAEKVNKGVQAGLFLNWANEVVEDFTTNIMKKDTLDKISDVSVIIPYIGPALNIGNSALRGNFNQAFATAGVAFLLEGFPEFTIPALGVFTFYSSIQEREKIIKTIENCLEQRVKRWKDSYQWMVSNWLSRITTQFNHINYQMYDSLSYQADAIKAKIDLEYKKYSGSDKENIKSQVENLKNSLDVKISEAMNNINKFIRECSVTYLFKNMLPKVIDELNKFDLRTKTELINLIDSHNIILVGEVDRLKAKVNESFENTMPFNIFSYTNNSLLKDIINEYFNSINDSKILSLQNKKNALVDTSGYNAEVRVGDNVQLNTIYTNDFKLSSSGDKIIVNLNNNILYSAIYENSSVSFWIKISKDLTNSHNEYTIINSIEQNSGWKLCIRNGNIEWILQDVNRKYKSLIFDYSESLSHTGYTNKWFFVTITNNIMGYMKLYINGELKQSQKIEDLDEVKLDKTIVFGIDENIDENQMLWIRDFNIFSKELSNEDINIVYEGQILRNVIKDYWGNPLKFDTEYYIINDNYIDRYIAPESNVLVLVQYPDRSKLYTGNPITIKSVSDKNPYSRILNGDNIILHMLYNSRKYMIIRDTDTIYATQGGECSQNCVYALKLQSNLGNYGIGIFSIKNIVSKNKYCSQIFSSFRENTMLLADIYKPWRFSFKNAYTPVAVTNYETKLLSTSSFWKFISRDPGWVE

T2: BoNT/C1 holotoxin (Clostridium botulinum, UniProt P18640 2-1291)
T2 sequence: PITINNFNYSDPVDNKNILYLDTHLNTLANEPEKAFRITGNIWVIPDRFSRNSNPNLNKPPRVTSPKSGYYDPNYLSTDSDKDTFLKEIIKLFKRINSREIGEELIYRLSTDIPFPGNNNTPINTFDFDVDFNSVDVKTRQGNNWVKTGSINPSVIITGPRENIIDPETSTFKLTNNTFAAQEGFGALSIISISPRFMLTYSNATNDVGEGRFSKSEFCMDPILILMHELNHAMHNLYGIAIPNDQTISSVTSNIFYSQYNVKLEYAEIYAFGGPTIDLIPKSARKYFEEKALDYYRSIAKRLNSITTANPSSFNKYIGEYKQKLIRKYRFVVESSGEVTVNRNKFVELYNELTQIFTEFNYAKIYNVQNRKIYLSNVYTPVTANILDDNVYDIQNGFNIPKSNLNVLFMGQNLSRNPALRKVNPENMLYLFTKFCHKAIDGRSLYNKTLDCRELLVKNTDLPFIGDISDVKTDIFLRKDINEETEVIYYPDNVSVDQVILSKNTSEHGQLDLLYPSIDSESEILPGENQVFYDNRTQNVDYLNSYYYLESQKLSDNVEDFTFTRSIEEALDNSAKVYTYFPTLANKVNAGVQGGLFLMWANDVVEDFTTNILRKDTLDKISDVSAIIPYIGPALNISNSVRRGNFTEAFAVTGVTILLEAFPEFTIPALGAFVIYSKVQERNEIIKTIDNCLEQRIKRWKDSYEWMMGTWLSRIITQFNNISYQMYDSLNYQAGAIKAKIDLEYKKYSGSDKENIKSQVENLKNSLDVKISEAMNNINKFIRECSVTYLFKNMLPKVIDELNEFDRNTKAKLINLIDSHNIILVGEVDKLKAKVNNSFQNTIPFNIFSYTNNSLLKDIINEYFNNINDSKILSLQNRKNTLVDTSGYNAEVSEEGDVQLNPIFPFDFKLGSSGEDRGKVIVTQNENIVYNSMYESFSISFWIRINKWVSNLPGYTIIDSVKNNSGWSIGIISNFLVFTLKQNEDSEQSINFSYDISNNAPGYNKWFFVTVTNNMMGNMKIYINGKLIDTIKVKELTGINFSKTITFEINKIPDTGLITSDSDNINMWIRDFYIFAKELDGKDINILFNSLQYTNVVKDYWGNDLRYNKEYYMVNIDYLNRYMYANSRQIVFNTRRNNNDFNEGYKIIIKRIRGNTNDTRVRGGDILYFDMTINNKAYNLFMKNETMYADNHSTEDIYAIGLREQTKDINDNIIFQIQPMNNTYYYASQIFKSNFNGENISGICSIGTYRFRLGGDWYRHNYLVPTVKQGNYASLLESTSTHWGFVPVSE

B1: 9B2 scFv (scFv)
scFv: QVQLQQSGAELVRPGASVKLSCTASGFNIEDDYMHWVKQRPEQGLEWIGRIDPANGNTEYAPKFQDKATITADTSSNTAYLQLSRLTSEDTAVYYCARGGWLGNYYAMDYWGQGTSVTVSSVDLKSGGSTSGSGKPGSGEGSSGSARDIVMTQTPLTLSVTIGQPASISCRSSQSLLHNYGNTYLHWYLQKPGQSPKLLIYKVSNRFSGVPDRFSGSGSGTDFTLKISRVEAEDLGVYFCSQGTHVPWTFGGGTKLEIK
notes: mouse
B2: 1H5 scFv (scFv)
scFv: EVQLQQSGAELVRPGTSVKLSCKASDYTFTNYWTHWVKQRPGQGLEWIGVIDPSDSYTNYNQKFKGKATLTVDTSSSTAYMQLSSLTSEDSAVYYCARGYYDTMDYWGQGTTVTVSSVDLKSGGSTSGSGKPGSGEGSSGSARDIVLTQSPASLAVSLGQRATISCRASESVDYDGDSYMNWYQQKPGQPPKLLIYAASNLESGIPARFSGSGSGTDFTLNIHPVEEEDAATYYCLQSNEAPWTFGGGTKLEIK
notes: mouse
B3: 12A11 scFv (scFv)
scFv: DVQLQESGPGLVKPSQSLSLTCSVTGYSITGGYYWNWIRQFPGNKLEWMGYISYDGSNNYNPSLKNRISITRDTSKNQFFLKLNSVTTEDTATYYCARNMGLWYFDVWGTGTPVTVSAVDLKSGGSTSGSGKPGSGEGSSGSARQIVLTQSPANLSASPGEKVTMTCSASSSVSYMHWYQQKPGSSPKPWIYATSNLASGVPARFSGSGSGTSYSLTISRMEAEDAATYYCQQWSSYPPMYTFGGGTKLELK
notes: mouse
B4: 8DC15 scFv (scFv, V domains shown)
VH: QVQLQESGPGLLKPSQTLSLTCSVSGGSMITGGYYWTWVRQLPGKGLEWIGHVYYTGKTYYNPSLNGRFTIAIDTSKNQFSLNLNSVTATDTAVFYCARAIWGGWYFDLWGQGTLVTVSS
VL: DIQMTQSPSSLSASVGDRITITCRASRDIRDDLAWYQQKPGKAPKLLIYAASSLQSGVPSRFSGSGSGTEFTLTISSLQPEDFATYYCQQANSFPLTFGGGTKVDIK
notes: human
B5: 1C2 scFv (scFv, V domains shown)
VH: QVQLQQSGAEVRKSGASVKVSCKTSGYTFTTYYIHWVRQAPGQGLEWMGMIDPRGGSASYAQRFQGRVTMTRDTSTTTVFLALNSLESNDTAVYYCARGGLPYQQLPLWGQGTLVTVSS
VL: not shown
notes: human
B6: 1C1 scFv (scFv, V domains shown)
VH: QVQLQESGSGLVKPSQSLSLTCAVSGGSISSGDYSWSWIRQPPGEGLEWIGYIFPRGSTYYNPSLRSRVTMSVDRSKNQFSLSLNSVTAADTAVYYCARTKMGAAEGVFDYWGQGTLVTVSS
VL: DIVMTQSPSTLSASVGDRVTITCRASQSVSTWLAWYQQKPGKAPNLLISEASNLESGVPSRFSGSGSGTEFTLTISSLQPDDFAIYYCQQYNSYVWTFGQGTKLEIK
notes: human
B7: 1C1.1 scFv (scFv, V domains shown)
VH: B6 VH
VL: EIVLTQSPSSLPASVGDRVTITCRASQSIGTYLNWYQHKPGSAPKLLINAASSLQSGVPSRFSGSGSGTDFTLTISSLQPDDFATYYCQQYNSYTWTFGQGTKVGIK
notes: human
B8: 87C1 scFv (scFv, V domains shown)
VH: QVQLQQSGGGVVQPGRSLRLSCAGSGFTLSTYGMHWVRQAPGKGLEWVAVISNDGSKEYYADSVKGRFAISRDNSKNTLSLQMNGLRAEDTAIYYCAKAIKSYSTIGGACNLWGQGTMVTVSS
VL: DIVMTQSPSFLSASVGDRVTITCRASQSISSYLNWYQQKPGKAPKLLIYAASSLQSGVPSRFSGSRSGTYFTLTISSLQPEDFATYYCQQSYITWTFGQGTRLEIK
notes: human
B9: 4C10 scFv (scFv, V domains shown)
VH: QVQLVESGGGAVQPGESLRLSCAASGFTFSGFDMHWVRQSPGRGLEWVARISHDGSMADYADSLRGRFTISRDNPKNTLYLHMNSLRVEDTALYYCAKDRWRSGSYPAFEKWGQGTMVTVSS
VL: QSVPTQPASVSGSPGQSITISCTGTSSDVGAYNYVSWYQQHPGKAPKLMIYDVSDRPSGVSNRFSGSKSGNTASLTISGLQAEDEADYYCSSYTSSSTYVFGTGTKLTVL
notes: human
B10: 4C2 scFv (scFv, V domains shown)
VH: EVQLVQSGGNLVQPGGSLRLSCTASGFIFSNHWMQWVRQIPGKGLMWVSRINDSGRSTSYAGFVKGRFTMSRDNAKNTLFLQMNSLTAEDTGVYYCVRETWEVLGHLGYEVLDHWGLGTLVTVSS
VL: DIVMTQSPSSLSASVGDRVTITCRASQGISSYLAWYQQKPGKAPKLLIYAASTLQSGVPSRFSGSGSGTEFTLTISSLQPEDFATYYCQQLNSYPRTFGQGTKVDIK
notes: human
B11: 1C8 scFv (scFv, V domains shown)
VH: QVQLQQSGAEVKKPGASVKVSCKASAFTFNSNYIHWVRLAPGQGPEWMGIINPDGGRTTYAQKFQGRITMTTDTSTYAVYMELSSLRSEDTAVYYCARGATNIPYGMSVWGQGTTVTVSS
VL: DIVMTQSPSSLSASVGDRVTITCRASQAIRNDLGWYQQEPGKAPKLLIYAASTLQSGVPSRFSGRGSGTDFTLTISSLQPEDFATYYCLQHNSYPLTFGGGTKVDIK
notes: human

For one experiment, the target named is BoNT/A1 holotoxin (Hall hyper) (Clostridium botulinum, UniProt P0DPI0 2-1296). Briefly: yeast scFv FACS.
Molecule B1 yielded a Kd of 232 nM. As to B2, the binding result is listed as “no binding”. For the molecule B3, the Kd was 0.66 nM.

A further experiment concerns the target BoNT/A light chain (recombinant) (Clostridium botulinum, UniProt P0DPI0 1-448). The experiment is described as follows: yeast scFv FACS.
For B1, the Kd was determined as 0.67 nM. For the molecule B2, the Kd is 10.6 nM. Regarding B3, the Kd was found to be 25.8 nM.

The target in another experiment is BoNT/A2 holotoxin (FRI-H1A2) (Clostridium botulinum, UniProt Q45894 2-1296). Briefly: yeast scFv FACS.
Chain of BoNT/A2 holotoxin (FRI-H1A2) (Q45894 2-1296): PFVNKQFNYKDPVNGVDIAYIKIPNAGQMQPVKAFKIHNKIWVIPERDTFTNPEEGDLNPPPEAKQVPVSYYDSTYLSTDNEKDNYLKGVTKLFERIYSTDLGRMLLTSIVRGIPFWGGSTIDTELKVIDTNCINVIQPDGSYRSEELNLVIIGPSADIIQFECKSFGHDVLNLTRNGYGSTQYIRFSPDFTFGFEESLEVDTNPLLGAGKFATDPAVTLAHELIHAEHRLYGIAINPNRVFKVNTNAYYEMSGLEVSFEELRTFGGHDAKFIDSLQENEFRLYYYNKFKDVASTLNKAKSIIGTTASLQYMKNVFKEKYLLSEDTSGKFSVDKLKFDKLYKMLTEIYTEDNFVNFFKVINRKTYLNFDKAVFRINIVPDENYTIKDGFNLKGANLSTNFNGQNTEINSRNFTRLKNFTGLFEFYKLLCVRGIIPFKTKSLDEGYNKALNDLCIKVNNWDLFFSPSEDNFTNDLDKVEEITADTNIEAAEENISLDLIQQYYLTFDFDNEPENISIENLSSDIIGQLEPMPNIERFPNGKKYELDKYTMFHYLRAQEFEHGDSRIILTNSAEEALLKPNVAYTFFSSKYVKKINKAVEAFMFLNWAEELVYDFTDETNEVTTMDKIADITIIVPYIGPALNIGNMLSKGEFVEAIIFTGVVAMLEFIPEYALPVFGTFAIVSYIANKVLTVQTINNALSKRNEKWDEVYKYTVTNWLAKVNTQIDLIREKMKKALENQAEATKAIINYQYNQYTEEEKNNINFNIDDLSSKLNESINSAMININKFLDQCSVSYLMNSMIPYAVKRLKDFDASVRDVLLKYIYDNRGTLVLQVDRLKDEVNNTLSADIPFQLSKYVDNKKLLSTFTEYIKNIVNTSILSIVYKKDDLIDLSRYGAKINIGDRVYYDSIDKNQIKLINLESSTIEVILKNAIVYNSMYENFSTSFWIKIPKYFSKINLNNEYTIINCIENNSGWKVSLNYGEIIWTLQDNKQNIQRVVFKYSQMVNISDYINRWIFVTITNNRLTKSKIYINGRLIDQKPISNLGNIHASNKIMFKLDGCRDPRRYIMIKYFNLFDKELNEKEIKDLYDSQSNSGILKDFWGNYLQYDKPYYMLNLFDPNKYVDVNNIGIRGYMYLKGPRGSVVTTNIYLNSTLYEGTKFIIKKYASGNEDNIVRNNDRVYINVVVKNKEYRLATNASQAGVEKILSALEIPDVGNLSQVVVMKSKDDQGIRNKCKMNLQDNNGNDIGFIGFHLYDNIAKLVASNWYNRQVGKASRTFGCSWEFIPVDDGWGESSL
On to B1, for which binding was characterised by a dissociation constant (Kd) of 154 nM. As for B2, the binding result was “no binding”. In turn, B3 gave a Kd of 2.08 nM.

For a further experiment, the target named is T1, BoNT/D. The experiment is described as follows: yeast scFv FACS.
Regarding B4, the binding result is on record as “no binding (tested: ~1 µM)”. Regarding B5, the binding result is given as “no binding (tested: ~1 µM)”. On the same count and under the same terms, the entry for B6 is “no binding (tested: ~1 µM)”; for B7 it is “no binding (tested: ~1 µM)”. The same measure, in the same setting: the value for B8 was “no binding (tested: ~1 µM)”.

The next experiment has as its target T2, BoNT/C1 holotoxin. Briefly: yeast scFv FACS.
B9 registered a Kd of 0.39 nM. Same read-out and setting: the value for B5 was 24 nM; that for B6 was 0.5 nM. Same read-out and setting: the value for B7 was 0.15 nM; that for B10 was 0.19 nM. Take B8: the Kd was 2 nM. Same read-out and setting: the figure for B11 is 42 nM.
